{
  "source": "patent US20260167737A1",
  "about": "(BIGHAT BIOSCIENCES, published 2026)",
  "target": "T1, CDH17 (UniProt Q12864 23-787, limits assumed)",
  "T1 construct": "also called cadherin 17",
  "T1 sequence (looked up)": "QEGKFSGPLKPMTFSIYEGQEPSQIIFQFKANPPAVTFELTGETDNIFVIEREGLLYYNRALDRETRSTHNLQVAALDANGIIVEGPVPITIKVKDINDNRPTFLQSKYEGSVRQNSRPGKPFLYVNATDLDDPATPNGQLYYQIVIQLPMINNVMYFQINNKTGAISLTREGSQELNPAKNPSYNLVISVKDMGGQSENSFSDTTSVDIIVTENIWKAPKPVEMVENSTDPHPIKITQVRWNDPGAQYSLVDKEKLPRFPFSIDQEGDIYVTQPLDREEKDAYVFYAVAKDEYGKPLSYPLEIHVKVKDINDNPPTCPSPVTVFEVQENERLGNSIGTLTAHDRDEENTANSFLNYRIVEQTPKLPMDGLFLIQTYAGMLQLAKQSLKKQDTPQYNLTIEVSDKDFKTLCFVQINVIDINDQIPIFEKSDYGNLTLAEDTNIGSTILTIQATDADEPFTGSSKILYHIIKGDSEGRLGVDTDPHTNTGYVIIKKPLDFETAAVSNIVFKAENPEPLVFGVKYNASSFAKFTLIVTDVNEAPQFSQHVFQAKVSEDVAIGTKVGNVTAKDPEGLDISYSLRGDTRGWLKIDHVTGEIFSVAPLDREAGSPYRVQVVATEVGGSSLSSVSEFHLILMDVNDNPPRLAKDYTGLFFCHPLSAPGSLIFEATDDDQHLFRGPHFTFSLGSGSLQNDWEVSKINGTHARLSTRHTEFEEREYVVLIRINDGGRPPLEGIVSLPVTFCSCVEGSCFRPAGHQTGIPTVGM",
  "assay": "method not stated; KD at pH 7.4",
  "data": [
    {"binder": "CDH17_vhh_0001 (VHH, also called parental VHH-0001) VHH: QVQLQESGGGLVQPGGSTRLSCVSSRTFSYYDMGWFRQAPGKEREFVALLSWNGENAEYSDSVMGRFTVSRGNTQNSVNLQMNNLKPEDTGIYYCAVTHGGARSVRSWGQGTQVTVSS", "values": [
      {"measurement": "Kd", "value": 27.2, "unit": "nM"}
    ]},
    {"binder": "CDH17_vhh_0263 (VHH) VHH: QVQLQESGGGLVQPGGSTRLSCVSSRTFSYYDMGWFRQAPGKEREFVALLSWRGNYAEYSDSVMGRFVVSRGNTQNSVNLQMNNLKPEDTGIYYCAVTYGGARSVRSWGQGTQVTVSS", "values": [
      {"measurement": "Kd", "value": 3.94, "unit": "nM"}
    ]},
    {"binder": "CDH17_vhh_0644 (VHH) VHH: QVQLQESGGGLVQPGGSTRLSCVSSRTFSYYDMGWFRQAPGKEREFVALLSWRGNNAEYRDSVMGRFVVSRGNTQNSVNLQMNNLKPEDTGIYYCAVTYGVARSVRSWGQGTQVTVSS", "values": [
      {"measurement": "Kd", "value": 3.32, "unit": "nM"}
    ]},
    {"binder": "CDH17_vhh_0676 (VHH) VHH: QVQLQESGGGLVQPGGSTRLSCVSSRTFSYYDMGWFRQAPGKEREFVALLSWRGNNAEYSDDVMGRFTVSRGNTQNSVNLQMNNLKPEDTGIYYCAVTYGTARSVRSWGQGTQVTVSS", "values": [
      {"measurement": "Kd", "value": 4.36, "unit": "nM"}
    ]},
    {"binder": "CDH17_vhh_0622 (VHH) VHH: QVQLQESGGGLVQPGGSTRLSCVSSITFSYYDMGWFRQAPGKEREFVALLSWRGENAEYSDSVMGRFTVSRGNTQNSVNLQMNNLKPEDTGIYYCAVTYGGARSVRSWGQGTQVTVSS", "values": [
      {"measurement": "Kd", "value": 2.93, "unit": "nM"}
    ]},
    {"binder": "CDH17_vhh_0670 (VHH) VHH: QVQLQESGGGLVQPGGSTRLSCVSSRTFSYYDMGWFRQAPGKEREFVALLDWRGNYAEYSDSVMGRFTVSRGNTQNSVNLQMNNLKPEDTGIYYCAVTYGGARSVRSWGQGTQVTVSS", "values": [
      {"measurement": "Kd", "value": 4.53, "unit": "nM"}
    ]},
    {"binder": "CDH17_vhh_0675 (VHH) VHH: QVQLQESGGGLVQPGGSTRLSCVSSRTFSYYDMGWFRQAPGKEREFVALLSWRGNNAEYSDTVMGRFTVSRGNTQNSVNLQMNNLKPEDTGIYYCAVTYGGARSVRAWGQGTQVTVSS", "values": [
      {"measurement": "Kd", "value": 3.89, "unit": "nM"}
    ]},
    {"binder": "CDH17_vhh_0645 (VHH) VHH: QVQLQESGGGLVQPGGSTRLSCVSSRTFSYYDMGWFRQYPGKEREFVALLSWRGNYAEYSDSVMGRFVVSRGNTQNSVNLQMNNLKPEDTGIYYCAVTYGGARSVRSWGQGTQVTVSS", "values": [
      {"measurement": "Kd", "value": 5.17, "unit": "nM"}
    ]},
    {"binder": "CDH17_vhh_0591 (VHH) VHH: QVQLQESGGGLVQPGGSTRLSCVSSRTFSYYDMGWFRQAPGKEREFVALLSWRGNNAEYSDSVMGRFTVSRGNTQNSVNLQMNNLKPEDTGIYYCAVTYGGARSVRLWGQGTQVTVSS", "values": [
      {"measurement": "Kd", "value": 3.21, "unit": "nM"}
    ]},
    {"binder": "CDH17_vhh_0648 (VHH) VHH: QVQLQESGGGLVQPGGSTRLSCVSSRTFSYYDMGWFRQAPGKEREFVALLSWRGNNAEYSDSVMGRFVVSRGNTQNSVNLQMNNLKPEDTGIYYCAVTYGVAKSVRSWGQGTQVTVSS", "values": [
      {"measurement": "Kd", "value": 2.18, "unit": "nM"}
    ]},
    {"binder": "CDH17_vhh_0629 (VHH) VHH: QVQLQESGGGLVQPGGSTRLSCVSSRTFSYYDMGWFRQAPGKEREFVALLDWRGENAEYSDSVMGRFTVSRGNTQNSVNLQMNNLKPEDTGIYYCAVTYGGARSVRSWGQGTQVTVSS", "values": [
      {"measurement": "Kd", "value": 4.96, "unit": "nM"}
    ]},
    {"binder": "CDH17_vhh_0672 (VHH) VHH: QVQLQESGGGLVQPGGSTRLSCVSSRTFSYYDMGWFRQAPGKEREFVALLSWRGNNAEYSDSVHGRFTVSRGNTQNSVNLQMNNLKPEDTGIYYCAVTYGGARSVRLWGQGTQVTVSS", "values": [
      {"measurement": "Kd", "value": 3.76, "unit": "nM"}
    ]},
    {"binder": "CDH17_vhh_0650 (VHH) VHH: QVQLQESGGGLVQPGGSTRLSCVSSRTFSYYDMGWFRQAPGKEREFVALLSWRGNNAEYRDSVMGRFTVSRGNTQNSVNLQMNNLKPEDTGIYYCAVTYGGAKSVRLWGQGTQVTVSS", "values": [
      {"measurement": "Kd", "value": 2.45, "unit": "nM"}
    ]},
    {"binder": "CDH17_vhh_0271 (VHH) VHH: QVQLQESGGGLVQPGGSTRLSCVSSRTFSYYDMGWFRQAPGKEREFVALLSWRGNNAEYSDSVMGRFVVSRGNTQNSVNLQMNNLKPEDTGIYYCAVTYGVARSVRSWGQGTQVTVSS", "values": [
      {"measurement": "Kd", "value": 2.82, "unit": "nM"}
    ]},
    {"binder": "CDH17_vhh_0267 (VHH) VHH: QVQLQESGGGLVQPGGSTRLSCVSSRTFSYYDMGWFRYAPGKEREFVALLSWRGNNAEYADSVMGRFTVSRGNTQNSVNLQMNNLKPEDTGIYYCAVTYGGARSVRSWGQGTQVTVSS", "values": [
      {"measurement": "Kd", "value": 5.08, "unit": "nM"}
    ]},
    {"binder": "CDH17_vhh_0156 (BHB156) (VHH) VHH: QVQLQESGGGLVQPGGSTRLSCVSSRTFSYYDMGWFRQAPGKEREFVALLSWRGNNAEYSDSVMGRFTVSRGNTQNSVNLQMNNLKPEDTGIYYCAVTYGGARSVRSWGQGTQVTVSS", "values": [
      {"measurement": "Kd", "value": 7.59, "unit": "nM"}
    ]},
    {"binder": "CDH17_vhh_0259 (VHH) VHH: QVQLQESGGGLVQPGGSTRLSCVSSRTFSYYDMGWFRQYPGKEREFVALLSWRGNNAEYSDSVMGRFTVSRGNTQNSVNLQMNNLKPEDTGIYYCAVTYGGARSVRSWGQGTQVTVSS", "values": [
      {"measurement": "Kd", "value": 4.75, "unit": "nM"}
    ]},
    {"binder": "CDH17_vhh_0262 (VHH) VHH: QVQLQESGGGLVQPGGSTRLSCVSSRTFSYYDMGWFRQAPGKEREFVALLSWRGNNAEYSDTVMGRFTVSRGNTQNSVNLQMNNLKPEDTGIYYCAVTYGGARSVRSWGQGTQVTVSS", "values": [
      {"measurement": "Kd", "value": 5.14, "unit": "nM"}
    ]},
    {"binder": "CDH17_vhh_0372 (VHH) VHH: QVQLQESGGGLVQPGGSTRLSCVSSRTFSYYDMGWFRQAPGKEREFVALLDWRGNNAEYSDSVMGRFTVSRGNTQNSVNLQMNNLKPEDTGIYYCAVTYGGARSVRSWGQGTQVTVSS", "values": [
      {"measurement": "Kd", "value": 4.85, "unit": "nM"}
    ]},
    {"binder": "CDH17_vhh_0651 (VHH) VHH: QVQLQESGGGLVQPGGSTRLSCVSSRTFSYYDMGWFRQYPGKEREFVALLSWRGNNAEYSDSVMGRFVVSRGNTQNSVNLQMNNLKPEDTGIYYCAVTLGVARSVRSWGQGTQVTVSS", "values": [
      {"measurement": "Kd", "value": 3.71, "unit": "nM"}
    ]},
    {"binder": "CDH17_vhh_0587 (VHH) VHH: QVQLQESGGGLVQPGGSTRLSCVSSRTFSYYDMGWFRQAPGKEREFVALLSWRGINAEYSDSVMGRFTVSRGNTQNSVNLQMNNLKPEDTGIYYCAVTYGGARSVRSWGQGTQVTVSS", "values": [
      {"measurement": "Kd", "value": 5.01, "unit": "nM"}
    ]},
    {"binder": "CDH17_vhh_0613 (VHH) VHH: QVQLQESGGGLVQPGGSTRLSCVSSRTFSYYDMGWFRQAPGKEREFVALLSWRGENAEYSDSVMGRFTVSRGNTQNSVNLQMNNLKPEDTGIYYCAVTYGGARSVRSWGQGTQVTVSS", "values": [
      {"measurement": "Kd", "value": 4.85, "unit": "nM"}
    ]},
    {"binder": "CDH17_vhh_0652 (VHH) VHH: QVQLQESGGGLVQPGGSTRLSCVSSRTFSYYDMGWFRQYPGKEREFVALLSWRGNYAEYSDSVMGRFVVSRGNTQNSVNLQMNNLKPEDTGIYYCAVTYGGARSVRLWGQGTQVTVSS", "values": [
      {"measurement": "Kd", "value": 3.3, "unit": "nM"}
    ]},
    {"binder": "CDH17_vhh_0632 (VHH) VHH: QVQLQESGGGLVQPGGSTRLSCVSSRTFSYYDMGWFRQAPGKEREFVALLSWRGERAEYSDSVMGRFTVSRGNTQNSVNLQMNNLKPEDTGIYYCAVTYGGARSVRSWGQGTQVTVSS", "values": [
      {"measurement": "Kd", "value": 4.9, "unit": "nM"}
    ]},
    {"binder": "CDH17_vhh_0677 (VHH) VHH: QVQLQESGGGLVQPGGSTRLSCVSSRTFSYYDMGWFRQAPGKEREFVALLSWRGNNAEYSDDVMGRFTVSRGNTQNSVNLQMNNLKPEDTGIYYCAVTYGKARSVRSWGQGTQVTVSS", "values": [
      {"measurement": "Kd", "value": 2.65, "unit": "nM"}
    ]},
    {"binder": "CDH17_vhh_0653 (VHH) VHH: QVQLQESGGGLVQPGGSTRLSCVSSRTFSYYDMGWFRQAPGKEREFVALLSWRGINAEYSDTVMGRFVVSRGNTQNSVNLQMNNLKPEDTGIYYCAVTYGVARSVRSWGQGTQVTVSS", "values": [
      {"measurement": "Kd", "value": 3.12, "unit": "nM"}
    ]},
    {"binder": "CDH17_vhh_0395 (VHH) VHH: QVQLQESGGGLVQPGGSTRLSCVSSRTFSYYDMGWFRQAPGKEREFVALLSWRGNNAEYSESVMGRFTVSRGNTQNSVNLQMNNLKPEDTGIYYCAVTYGGARSVRSWGQGTQVTVSS", "values": [
      {"measurement": "Kd", "value": 5.47, "unit": "nM"}
    ]},
    {"binder": "CDH17_vhh_0646 (VHH) VHH: QVQLQESGGGLVQPGGSTRLSCVSSRTFSYYDMGWFRQAPGKEREFVALLSWRGNNAEYRDSVMGRFTVSRGNTQNSVNLQMNNLKPEDTGIYYCAVTYGGARSVRLWGQGTQVTVSS", "values": [
      {"measurement": "Kd", "value": 2.63, "unit": "nM"}
    ]},
    {"binder": "CDH17_vhh_0274 (VHH) VHH: QVQLQESGGGLVQPGGSTRLSCVSSRTFSYYDMGWFRQAPGKEREFVALLSWRGNNAEYSDSVMGRFVVSRGNTQNSVNLQMNNLKPEDTGIYYCAVTYGGAKSVRSWGQGTQVTVSS", "values": [
      {"measurement": "Kd", "value": 4.35, "unit": "nM"}
    ]},
    {"binder": "CDH17_vhh_0674 (VHH) VHH: QVQLQESGGGLVQPGGSTRLSCVSSRTFSYYDMGWFRQAPGKEREFVALLSWRGNNAEYSDTVMGRFTVSRGNTQNSVNLQMNNLKPEDTGIYYCAVTYGGARSVRKWGQGTQVTVSS", "values": [
      {"measurement": "Kd", "value": 3.79, "unit": "nM"}
    ]},
    {"binder": "CDH17_vhh_0173 (VHH) VHH: QVQLQESGGGLVQPGGSTRLSCVSSRTFSYYDMGWFRQAPGKEREFVALLSWRGNNAEYRDSVMGRFTVSRGNTQNSVNLQMNNLKPEDTGIYYCAVTYGGARSVRSWGQGTQVTVSS", "values": [
      {"measurement": "Kd", "value": 4.94, "unit": "nM"}
    ]}
  ]
}
